The results in this text go back to patent US20160068822A1.

One experiment has as its target TALE(KLF4)-NLS-CRY2PHR. Description: cell-based or functional assay.
The next experiment has as its target TALE(Ngn2)-NLS-CRY2PHR. Description: cell-based or functional assay.

The substance CIB1-NLS-VP64-2A_GFP displayed a KLF4 mRNA upregulation, saturated at 5 mW/cm2 (HEK293FT cells) in the experiment with TALE(KLF4)-NLS-CRY2PHR of 2.3 fold. In the experiment with TALE(Ngn2)-NLS-CRY2PHR, this substance came in with a Neurog2 expression peak at 12 h of light stimulation of 19 fold, a Neurog2 mRNA level 0.5 h after the end of a 6 h stimulation of 16 fold and an upregulation of Neurog2 expression at 0.5 h of light stimulation of 5 fold.
